T1: cyno PRLR ECD-his6 protein (cyno)
T1 chain: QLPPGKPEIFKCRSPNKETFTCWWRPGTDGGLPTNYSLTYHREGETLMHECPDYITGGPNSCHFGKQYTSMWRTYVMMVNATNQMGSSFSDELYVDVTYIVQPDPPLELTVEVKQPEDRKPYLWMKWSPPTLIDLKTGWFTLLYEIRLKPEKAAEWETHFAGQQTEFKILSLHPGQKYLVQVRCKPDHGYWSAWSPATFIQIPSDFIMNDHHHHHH

T2: rat PRLR ECD-Fc fusion protein (rat, UniProt P05710 20-229)
T2 construct: extracellular domain; not shown: Fc region (captured by goat anti-human Fc)
T2 sequence (looked up): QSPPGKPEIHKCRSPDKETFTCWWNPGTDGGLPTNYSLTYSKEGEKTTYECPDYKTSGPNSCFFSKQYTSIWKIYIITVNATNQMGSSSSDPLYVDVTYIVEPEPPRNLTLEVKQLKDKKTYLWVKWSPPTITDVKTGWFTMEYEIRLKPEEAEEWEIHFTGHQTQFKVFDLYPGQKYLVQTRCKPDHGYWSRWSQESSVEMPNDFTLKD

T3: mouse PRLR ECD-Fc fusion protein (mouse, UniProt Q08501 20-229)
T3 construct: extracellular domain; not shown: Fc region (captured by goat anti-human Fc)
T3 sequence (looked up): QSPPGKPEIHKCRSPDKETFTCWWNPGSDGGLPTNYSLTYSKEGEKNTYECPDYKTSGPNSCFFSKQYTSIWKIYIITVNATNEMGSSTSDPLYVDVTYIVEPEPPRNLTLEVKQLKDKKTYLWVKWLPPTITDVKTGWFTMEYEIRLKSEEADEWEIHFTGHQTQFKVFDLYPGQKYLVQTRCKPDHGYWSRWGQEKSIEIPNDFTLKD

T4: human PRLR on cells (human, UniProt P16471 25-622)
T4 sequence: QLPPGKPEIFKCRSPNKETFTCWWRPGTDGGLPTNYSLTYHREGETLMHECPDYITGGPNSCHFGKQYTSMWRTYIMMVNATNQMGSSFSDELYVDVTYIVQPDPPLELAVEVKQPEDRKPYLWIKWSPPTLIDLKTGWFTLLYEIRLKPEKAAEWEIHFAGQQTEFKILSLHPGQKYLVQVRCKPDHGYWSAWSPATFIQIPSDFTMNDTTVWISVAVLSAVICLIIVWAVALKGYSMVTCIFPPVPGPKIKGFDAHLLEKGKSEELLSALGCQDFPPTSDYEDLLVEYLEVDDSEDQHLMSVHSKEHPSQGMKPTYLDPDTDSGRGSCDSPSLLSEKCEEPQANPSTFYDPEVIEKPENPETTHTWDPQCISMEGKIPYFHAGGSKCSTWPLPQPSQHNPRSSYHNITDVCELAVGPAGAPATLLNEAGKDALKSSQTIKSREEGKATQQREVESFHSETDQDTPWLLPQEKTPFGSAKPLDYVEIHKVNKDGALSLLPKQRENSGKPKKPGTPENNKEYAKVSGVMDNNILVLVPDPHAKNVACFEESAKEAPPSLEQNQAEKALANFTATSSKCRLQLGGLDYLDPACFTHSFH

T5: human PRLR (Biacore antigen) (human, UniProt P16471 25-234, limits assumed)
T5 construct: The construct injected over captured antibody is not described (a soluble form is likely); also called huPRLR
T5 sequence: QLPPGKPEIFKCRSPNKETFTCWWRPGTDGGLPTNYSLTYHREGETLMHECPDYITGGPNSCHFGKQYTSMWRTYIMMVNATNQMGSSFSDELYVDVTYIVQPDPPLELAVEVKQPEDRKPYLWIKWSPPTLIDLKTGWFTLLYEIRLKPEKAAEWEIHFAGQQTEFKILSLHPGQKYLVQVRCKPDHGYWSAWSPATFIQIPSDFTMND

T6: cyno PRLR (Biacore antigen) (cyno, UniProt A0A2K5WXK1 25-234)
T6 construct: also called cyPRLR
T6 sequence: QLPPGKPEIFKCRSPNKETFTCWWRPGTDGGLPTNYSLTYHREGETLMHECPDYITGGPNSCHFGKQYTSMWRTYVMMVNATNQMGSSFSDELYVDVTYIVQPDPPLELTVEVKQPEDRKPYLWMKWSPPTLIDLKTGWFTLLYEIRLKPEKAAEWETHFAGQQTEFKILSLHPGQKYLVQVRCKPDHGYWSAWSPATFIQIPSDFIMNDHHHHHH

T7: murine PRLR (Biacore antigen) (murine, UniProt Q08501 20-229, limits assumed)
T7 construct: also called muPRLR
T7 sequence (looked up): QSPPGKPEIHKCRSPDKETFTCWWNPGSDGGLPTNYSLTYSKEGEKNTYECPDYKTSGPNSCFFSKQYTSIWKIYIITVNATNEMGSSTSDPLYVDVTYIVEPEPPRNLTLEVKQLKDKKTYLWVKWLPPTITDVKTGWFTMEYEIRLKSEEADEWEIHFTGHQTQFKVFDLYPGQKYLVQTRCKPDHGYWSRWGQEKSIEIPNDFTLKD

T8: human PRLR ECD-Fc fusion protein (human, UniProt P16471 25-233)
T8 construct: not shown: Fc region (captured by goat anti-human Fc)
T8 sequence: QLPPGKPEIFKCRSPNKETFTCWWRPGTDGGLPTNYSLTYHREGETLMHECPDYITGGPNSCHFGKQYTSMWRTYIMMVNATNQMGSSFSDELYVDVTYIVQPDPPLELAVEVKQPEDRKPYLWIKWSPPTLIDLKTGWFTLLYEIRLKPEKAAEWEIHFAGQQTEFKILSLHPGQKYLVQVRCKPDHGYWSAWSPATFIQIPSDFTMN

T9: mouse PRLR on Baf3-mPRLR cells (mouse, UniProt Q08501 20-608)
T9 sequence (looked up): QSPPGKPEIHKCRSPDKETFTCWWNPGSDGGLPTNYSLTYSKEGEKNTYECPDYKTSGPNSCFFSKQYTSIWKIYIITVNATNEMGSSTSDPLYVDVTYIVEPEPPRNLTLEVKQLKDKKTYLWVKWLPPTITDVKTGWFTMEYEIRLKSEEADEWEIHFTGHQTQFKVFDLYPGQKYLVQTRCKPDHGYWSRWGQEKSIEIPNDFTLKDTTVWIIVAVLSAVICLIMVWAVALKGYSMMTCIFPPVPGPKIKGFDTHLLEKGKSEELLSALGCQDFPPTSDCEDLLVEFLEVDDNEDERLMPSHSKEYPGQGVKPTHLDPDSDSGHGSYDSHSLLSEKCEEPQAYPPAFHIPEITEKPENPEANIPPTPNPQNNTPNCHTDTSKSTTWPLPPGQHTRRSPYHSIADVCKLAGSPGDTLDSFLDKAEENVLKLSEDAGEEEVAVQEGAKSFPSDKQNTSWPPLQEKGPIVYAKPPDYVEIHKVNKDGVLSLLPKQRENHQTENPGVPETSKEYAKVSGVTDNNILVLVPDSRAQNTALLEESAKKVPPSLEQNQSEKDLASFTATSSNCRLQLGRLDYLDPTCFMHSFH


Columns and labels:
[1] = biological target: T1, cyno PRLR ECD-his6 protein; test: ELISA on ECD
Experimental: (§1) Plates were blocked for 1 hour with Superblock (Pierce) and washed (3×) with wash buffer (lx PBS (pH 7.4), 0.05% Tween 20). ECD proteins were bound to the appropriate antibody (1 hour) in binding buffer (wash buffer plus 10% Superblock), washed (3×, wash buffer), and then incubated with serial dilutions of antibodies (1 hour) in binding buffer. After washing (3×, wash buffer), secondary antibodies conjugated to HRP were bound (1 hour) in binding buffer, washed (3×, wash buffer), and incubated with TMB substrate (Pierce) to develop signal for 3-5 minutes, stopped with 2N H₂SO₄ and scanned at […]. Curves were fit with GraphPad 5 (Prizm) and EC50's were determined with curve fitting function of GraphPad 5.

[2] = biological target: T2, rat PRLR ECD-Fc fusion protein; test: ELISA on ECD
Experimental: as §1

[3] = biological target: T3, mouse PRLR ECD-Fc fusion protein; test: ELISA on ECD
Experimental: as §1

[4] = biological target: cyno PRLR on Baf3-cyPRLR cells (cyno); test: cell-based or functional assay
human PRLR on cells = biological target: T4, human PRLR on cells; test: cell-based or functional assay
[5] = biological target: T5, human PRLR (Biacore antigen); test: SPR Biacore
Summary of the method: (§2)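 Association rate, dissociation rate and dissociation constant were measured by surface plasmon resonance on a Biacore instrument. PRLR antigen was tested at 600 nM, 66.67 nM and 7.41 nM, a 3-point, 9-fold dilution series. Constants came from a 1:1 binding model fit (local Rmax, mass-transport term included) in Biacore T200 Evaluation Software.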

[6] = biological target: T6, cyno PRLR (Biacore antigen); test: SPR Biacore
Summary of the method: as §2

[7] = biological target: T7, murine PRLR (Biacore antigen); test: SPR Biacore
Summary of the method: as §2

[8] = biological target: T8, human PRLR ECD-Fc fusion protein; test: ELISA on ECD
Experimental: as §1

[9] = biological target: T9, mouse PRLR on Baf3-mPRLR cells; test: cell-based or functional assay

Row | Binder | EC50 [1] [nM] | EC50 [2] [nM] | EC50 [3] [nM] | Baf3-cyPRLR proliferation IC50 [4] [µg/mL] | Baf3-hPRLR proliferation IC50 (human PRLR on cells) [µg/mL] | Kd [5] [nM] | koff [5] [s⁻¹] | kon [5] [M⁻¹ s⁻¹] | Kd [6] [nM] | koff [6] [s⁻¹] | kon [6] [M⁻¹ s⁻¹] | Kd [7] [nM] | koff [7] [s⁻¹] | kon [7] [M⁻¹ s⁻¹] | EC50 [8] [nM] | Baf3-mPRLR proliferation IC50 [9] [µg/mL]
1 | Ab26 (antibody, human IgG1, kappa, humanized from Ab5; G1; also called Ab HC.1 and Ab2 LC.1) heavy: not shown light: DIVMTQTPLSLSVTPGQPASISCRSSQRLVHSNGNTYLHWYLQKPGQSPQLLIYKVSNRFSGVPDRFSGSGSGTDFTLKISRVEAEDVGVYYCSQSTHVPWTFGGGTKVEIKRTVAAPSVFIFPPSDEQLKSGTASVVCLLNNFYPREAKVQWKVDNALQSGNSQESVTEQDSKDSTYSLSSTLTLSKADYEKHKVYACEVTHQGLSSPVTKSFNRGEC | 0.151 | 0.164 | 0.201 | 0.25 | 0.23 | – | – | – | – | – | – | – | – | – | – | –
2 | Ab35 (antibody, human IgG1, kappa, humanized from Ab7; G1; also called Ab4 HC.1 and Ab4 LC.1) heavy: not shown light: DIVMTQTPLSLSVTPGQPASISCRSSQSLVHSNGNTYLHWYLQKPGQSPQLLIYKVSNRFSGVPDRFSGSGSGTDFTLKISRVEAEDVGVYYCSQSTHVPFTFGGGTKVEIKRTVAAPSVFIFPPSDEQLKSGTASVVCLLNNFYPREAKVQWKVDNALQSGNSQESVTEQDSKDSTYSLSSTLTLSKADYEKHKVYACEVTHQGLSSPVTKSFNRGEC | 0.32 | – | – | 0.65 | 0.38 | 13.3 | 0.0016 | 120000 | 13.5 | 0.00142 | 105000 | 1580 | 0.0785 | 49800 | 2.5 | > 30
3 | Ab37 (antibody, human IgG1, kappa, humanized from Ab7; G1; also called Ab4 HC.1 and Ab4 LC.1b) heavy: not shown light: DVVMTQTPLSLSVTPGQPASISCRSSQSLVHSNGNTYLHWYLQKPGQSPQLLIYKVSNRFSGVPDRFSGSGSGTDFTLKISRVEAEDVGVYYCSQSTHVPFTFGGGTKVEIKRTVAAPSVFIFPPSDEQLKSGTASVVCLLNNFYPREAKVQWKVDNALQSGNSQESVTEQDSKDSTYSLSSTLTLSKADYEKHKVYACEVTHQGLSSPVTKSFNRGEC | 0.186 | – | – | 0.44 | 0.43 | 12.3 | 0.00146 | 119000 | 12.3 | 0.00132 | 107000 | 1670 | 0.0687 | 41100 | 0.184 | > 30
